According to PMC7875332:

Target: ACE2 receptor on Vero E6 cells (African green monkey (endogenous in Vero E6))
Test: flow cytometry on cells; HIS-tagged S protein incubated with 1.5 × 10^5 Vero E6 cells (ACE2+), 37°C for 1 hour, in 1% BSA in PBS with 0.02% sodium azide; detected with FITC-labeled anti-HIS Ab

For “recombinant SARS-CoV-2 S protein, fused with a HIS tag at the C terminus (from UniProt P0DTC2) (natural protein)”, the concentration at binding saturation was 200 nM.
